Test results as given in paper PMC8765073 (mAbs, 2022).

Key:
[1] = molecular target: RBD of pangolin CoV (PCoV-GD1) (Pangolin coronavirus GD/1/2019 …); assay: BLI
[2] = molecular target: RBD of SARS-CoV-1 (Tor 2) (SARS-CoV-1, Tor2, UniProt P59594); assay: BLI

B1: D27LEY (antibody, V domains shown)
VH: QVQLQQSGAEVKKPGSSVKVSCKASGGTFGNWSISWVRQAPGQGLEWMGGIAPGRGEATYAQKFQGRVTITTDESTSTAYMELSSLRSEDTAVYYCARETWYTSGGMDVWGQGTTVTVSS
VL: SYELTQPPSVSVAPGKTARITCGGNNIGRKSVHWYQQKPGQAPVLVVYDDSDRPSGIPERFSGSNSGNTATLTISRVEAGDEADYYCQVYDLWSSDYVFGTGTKVEIK
Work on B1 yielded a Kd [1] of 0.66 nM and a Kd [2] of under 0.001 nM.
